Data on 39 molecules can be found in US20090208538A1 (ROCKEFELLER UNIVERSITY, published 2009).

For assay [1], the target named is T1, HLA-A*0201 (human).
T1 construct: also called HLA-A2.1; HLA A2.1
In words: iTopia binding.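 Further: each peptide tested for binding to HLA-A2 molecules immobilized on plates, using a commercial screening kit run per its supplied protocol and reagents.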

In assay [2] the target is T1, HLA-A*0201. In words: iTopia affinity.
In assay [3] the target is T1, HLA-A*0201. In words: iTopia off-rate.
The target in assay [4] is T1, HLA-A*0201. In words: iTopia net score.
In assay [5] the target is HLA-A*2402 (human). The assay is described as follows: iTopia affinity.
Assay [6] has as its target HLA-A*2402 (human). The assay is described as follows: iTopia off-rate.
Assay [7] deals with HLA-A*2402 (human). The assay is described as follows: iTopia net score.

B1: cdr2 125-133 NIDHLQSQV (peptide)
peptide: NIDHLQSQV
For B1, the “binding vs positive control” value in assay [1] is above 30%. In assay [2], this molecule yielded an ED50 of 6 µM. In assay [3], this molecule had a t1/2 of 1.3. The iScore in assay [4] was determined as 0.166.

B2: cdr2 421-429 EYKALFKEI (peptide)
peptide: EYKALFKEI
Molecule B2 came in with an ED50 in assay [5] of 0.44 µM. This molecule showed a t1/2 in assay [6] of 1.63. Besides, the iScore in assay [7] turned out to be 0.505.

B3: cdr2 288-296 QSLLEEMFL (peptide)
peptide: QSLLEEMFL
As to B3, the “binding vs positive control” value in assay [1] is above 30%. The ED50 in assay [2] stood at 30 µM. Moreover, the t1/2 in assay [3] worked out at 5.44. Besides, the iScore in assay [4] was determined as 0.178.

B4: cdr2 313-221 TILSSLAGS (peptide)
peptide: TILSSLAGS
notes: Position printed as 313-221
For the molecule B4, in assay [1], the “binding vs positive control” value was above 30%. Further, in assay [2], the ED50 worked out at 2 µM. Also, the t1/2 in assay [3] came to 1.1. Also, in assay [4], the iScore is 0.238.

B5: cdr2 64-72 EYLTKQVEL (peptide)
peptide: EYLTKQVEL
Molecule B5 displayed an ED50 in assay [5] of 0.65 µM. The same molecule showed a t1/2 in assay [6] of 1.72. The molecule further showed an iScore in assay [7] of 0.444.

B6: cdr2 352-360 QYSALKVKY (peptide)
peptide: QYSALKVKY
Regarding B6, the ED50 in assay [5] was found to be 3.1 µM. The t1/2 in assay [6] came to 0.35. In assay [7], the iScore is 0.098.

B7: cdr2 52-60 MYTTNQEQL (peptide)
peptide: MYTTNQEQL
For B7, the ED50 in assay [5] was determined as 0.54 µM. Moreover, in assay [6], the t1/2 amounted to 1.46. In assay [7], this molecule had an iScore of 0.441.

B8: cdr2 218-226 TMEEEYGLV (peptide)
peptide: TMEEEYGLV
For the molecule B8, in assay [1], the “binding vs positive control” value is above 30%. In addition, the ED50 in assay [2] was determined as 6.3 µM. In assay [3], this molecule displayed a t1/2 of 1.27. In assay [4], the iScore was determined as 0.166.

B9: cdr2 82-90 KVYEQLDVT (peptide)
peptide: KVYEQLDVT
Regarding B9, the “binding vs positive control” value in assay [1] was above 30%. Moreover, the ED50 in assay [2] came to 8 µM. In assay [3], this molecule displayed a t1/2 of 1.3. In assay [4], this molecule returned an iScore of 0.139.

B10: cdr2 171-179 FVYDHVFAE (peptide)
peptide: FVYDHVFAE
As to B10, the “binding vs positive control” value in assay [1] was above 30%. In assay [2], the ED50 is 10 µM. The same molecule registered a t1/2 in assay [3] of 5.5. For the same molecule, the iScore in assay [4] came to 0.282.

B11: cdr2 400-408 ASGWELASV (peptide)
peptide: ASGWELASV
As for B11, in assay [1], the “binding vs positive control” value was above 30%. The ED50 in assay [2] stood at 1 µM. In addition, the t1/2 in assay [3] worked out at 0.5. In addition, the iScore in assay [4] came out at 0.187.

B12: cdr2 282-290 PFKEPSQSL (peptide)
peptide: PFKEPSQSL
For the molecule B12, in assay [5], the ED50 was found to be 0.49 µM. Further, the t1/2 in assay [6] was 1.25. The same molecule showed an iScore in assay [7] of 0.496.

B13: cdr2 204-212 MLQAQLSLE (peptide)
peptide: MLQAQLSLE
Turning to B13, the “binding vs positive control” value in assay [1] is above 30%. The molecule further registered an ED50 in assay [2] of 5 µM. In assay [3], this molecule registered a t1/2 of 5.1. The iScore in assay [4] was 0.235.

B14: cdr2 391-399 GVNAQSEPV (peptide)
peptide: GVNAQSEPV
Turning to B14, the “binding vs positive control” value in assay [1] was above 30%. The ED50 in assay [2] is 10 µM. The molecule further yielded a t1/2 in assay [3] of 6.4. The iScore in assay [4] was 0.292.

B15: cdr2 136-144 LKSSGQGRR (peptide)
peptide: LKSSGQGRR
On to B15, for which the “binding vs positive control” value in assay [1] is above 30%. In assay [2], this molecule showed an ED50 of 16 µM. The molecule also yielded a t1/2 in assay [3] of 2.38. In assay [4], this molecule displayed an iScore of 0.176.

B16: cdr2 29-37 QLAAELGKT (peptide)
peptide: QLAAELGKT
On to B16, for which, in assay [1], the “binding vs positive control” value was above 30%. In assay [2], this molecule gave an ED50 of 20 µM. Besides, in assay [3], the t1/2 stood at 1.4. Moreover, in assay [4], the iScore stood at 0.15.

B17: cdr2 271-279 VEKLVPDSL (peptide)
peptide: VEKLVPDSL
In assay [5], B17 showed an ED50 of 8.8 µM. The t1/2 in assay [6] amounted to 1.02. In assay [7], this molecule gave an iScore of 0.092.

B18: cdr2 384-392 AAAKDLTGV (peptide)
peptide: AAAKDLTGV
On to B18, for which, in assay [1], the “binding vs positive control” value was above 30%. Besides, the ED50 in assay [2] was 3 µM. Besides, the t1/2 in assay [3] stood at 6.5. The same molecule returned an iScore in assay [4] of 0.469.

B19: cdr2 266-274 PFVNGVEKL (peptide)
peptide: PFVNGVEKL
For the molecule B19, the ED50 in assay [5] was 1.4 µM. Moreover, the t1/2 in assay [6] was found to be 0.49. Besides, the iScore in assay [7] worked out at 0.218.

B20: cdr2 217-225 VTMEEEYGL (peptide)
peptide: VTMEEEYGL
As for B20, the “binding vs positive control” value in assay [1] is above 30%. The molecule further registered an ED50 in assay [2] of 2 µM. The molecule also yielded a t1/2 in assay [3] of 6.5. Further, the iScore in assay [4] came out at 0.528.

B21: cdr2 131-139 SQVEELKSS (peptide)
peptide: SQVEELKSS
As to B21, the “binding vs positive control” value in assay [1] is above 30%. Also, the ED50 in assay [2] was determined as 11 µM. Also, the t1/2 in assay [3] is 2.42. Also, the iScore in assay [4] amounted to 0.154.

B22: cdr2 373-381 SLSHKAVQT (peptide)
peptide: SLSHKAVQT
In the case of B22, the “binding vs positive control” value in assay [1] was above 30%. For the same molecule, the ED50 in assay [2] came out at 4 µM. The molecule also had a t1/2 in assay [3] of 0.8. This molecule yielded an iScore in assay [4] of 0.129.

B23: cdr2 237-245 LGATGAYRA (peptide)
peptide: LGATGAYRA
As to B23, the “binding vs positive control” value in assay [1] is above 30%. For the same molecule, the ED50 in assay [2] came out at 10 µM. The same molecule had a t1/2 in assay [3] of 1.2. The iScore in assay [4] turned out to be 0.13.

B24: cdr2 169-177 QHFVYDHVF (peptide)
peptide: QHFVYDHVF
As to B24, in assay [5], the ED50 was determined as 3.1 µM. Besides, the t1/2 in assay [6] was found to be 0.21. In addition, in assay [7], the iScore stood at 0.097.

B25: cdr2 274-282 LVPDSLYVP (peptide)
peptide: LVPDSLYVP
On to B25, for which the “binding vs positive control” value in assay [1] is above 30%. Also, in assay [2], the ED50 is 10 µM. Further, the t1/2 in assay [3] worked out at 2.4. The iScore in assay [4] is 0.154.

B26: cdr2 58-66 EQLQEIEYL (peptide)
peptide: EQLQEIEYL
In assay [5], B26 gave an ED50 of 3.4 µM. The t1/2 in assay [6] was 1.47. Besides, in assay [7], the iScore came out at 0.142.

B27: cdr2 128-136 HLQSQVEEL (peptide)
peptide: HLQSQVEEL
With B27, the “binding vs positive control” value in assay [1] was above 30%. The ED50 in assay [2] was 10 µM. The molecule also displayed a t1/2 in assay [3] of 7.7. In assay [4], this molecule yielded an iScore of 0.323.

B28: cdr2 289-297 SLLEEMFLT (peptide)
peptide: SLLEEMFLT
Regarding B28, the “binding vs positive control” value in assay [1] is above 30%. This molecule showed an ED50 in assay [2] of 6 µM. The t1/2 in assay [3] was found to be 13.9. In assay [4], this molecule came in with an iScore of 0.803.

B29: cdr2 425-433 LFKEIFSCI (peptide)
peptide: LFKEIFSCI
For B29, the ED50 in assay [5] worked out at 0.075 µM. In addition, the t1/2 in assay [6] amounted to 1.11. The iScore in assay [7] was 0.529.

B30: cdr2 121-129 CLQTNIDHL (peptide)
peptide: CLQTNIDHL
Regarding B30, the “binding vs positive control” value in assay [1] was above 30%. The molecule further had an ED50 in assay [2] of 20 µM. Further, the t1/2 in assay [3] was found to be 2.4. This molecule also had an iScore in assay [4] of 0.176.

B31: cdr2 405-413 LASVNPEPV (peptide)
peptide: LASVNPEPV
As for B31, the “binding vs positive control” value in assay [1] was above 30%. The ED50 in assay [2] came out at 4 µM. This molecule gave a t1/2 in assay [3] of 1.9. Besides, the iScore in assay [4] was determined as 0.244.

B32: cdr2 338-346 VKQRGISLL (peptide)
peptide: VKQRGISLL
With B32, the ED50 in assay [5] was 10 µM. Moreover, the t1/2 in assay [6] was 1.15. The iScore in assay [7] turned out to be 0.172.

B33: cdr2 293-301 EMFLTVPES (peptide)
peptide: EMFLTVPES
With B33, in assay [1], the “binding vs positive control” value was above 30%. In assay [2], this molecule registered an ED50 of 17 µM. Moreover, the t1/2 in assay [3] amounted to 1.38. Also, in assay [4], the iScore came to 0.15.

B34: cdr2 341-349 RGISLLHEV (peptide)
peptide: RGISLLHEV
Regarding B34, the “binding vs positive control” value in assay [1] is above 30%. The ED50 in assay [2] turned out to be 1 µM. This molecule also displayed a t1/2 in assay [3] of 7. For the same molecule, the iScore in assay [4] was found to be 0.752.

B35: cdr2 422-430 YKALFKEIF (peptide)
peptide: YKALFKEIF
B35 showed an ED50 in assay [5] of 1.5 µM. For the same molecule, in assay [6], the t1/2 came to 1.6. This molecule yielded an iScore in assay [7] of 0.357.

B36: cdr2 206-214 QAQLSLERQ (peptide)
peptide: QAQLSLERQ
With B36, the “binding vs positive control” value in assay [1] was above 30%. The ED50 in assay [2] was 8.1 µM. For the same molecule, the t1/2 in assay [3] was 3.42. Besides, the iScore in assay [4] came out at 0.174.

B37: cdr2 273-281 KLVPDSLYV (peptide)
peptide: KLVPDSLYV
Turning to B37, the “binding vs positive control” value in assay [1] was above 30%. In assay [2], the ED50 is 3 µM. Further, the t1/2 in assay [3] was determined as 6.1. In assay [4], the iScore was determined as 0.499.

B38: cdr2 113-121 LSLTETIEC (peptide)
peptide: LSLTETIEC
As for B38, the “binding vs positive control” value in assay [1] is above 30%. Moreover, the ED50 in assay [2] is 0.95 µM. Further, in assay [3], the t1/2 worked out at 0.51. In assay [4], this molecule registered an iScore of 0.187.

B39: cdr2 372-380 DSLSHKAVQ (peptide)
peptide: DSLSHKAVQ
With B39, the “binding vs positive control” value in assay [1] is above 30%. The molecule further registered an ED50 in assay [2] of 9 µM. The t1/2 in assay [3] stood at 6.3. In addition, the iScore in assay [4] worked out at 0.262.
